Source: article PMC5834258, “Selective targeting of collagen IV in the cancer cell microenvironment reduces tumor burden” (Oncotarget, 2018)

Columns and labels:
[1] = biological target: T1, Goodpasture antigen-binding protein (GPBP) (Homo sapiens, UniProt Q9Y5P4); assay: […] in vitro autophosphorylation of purified multimeric GPBP at […] T12; FPLC-SEC shift of GPBP oligomers (BSA control unaffected); type: biochemical
T1 construct: gene CERT1; FLAG-tagged recombinant GPBP multimer (77-kDa GPBP isoform); also native extracellular A427 GPBP
T1 sequence (Q9Y5P4 1-624): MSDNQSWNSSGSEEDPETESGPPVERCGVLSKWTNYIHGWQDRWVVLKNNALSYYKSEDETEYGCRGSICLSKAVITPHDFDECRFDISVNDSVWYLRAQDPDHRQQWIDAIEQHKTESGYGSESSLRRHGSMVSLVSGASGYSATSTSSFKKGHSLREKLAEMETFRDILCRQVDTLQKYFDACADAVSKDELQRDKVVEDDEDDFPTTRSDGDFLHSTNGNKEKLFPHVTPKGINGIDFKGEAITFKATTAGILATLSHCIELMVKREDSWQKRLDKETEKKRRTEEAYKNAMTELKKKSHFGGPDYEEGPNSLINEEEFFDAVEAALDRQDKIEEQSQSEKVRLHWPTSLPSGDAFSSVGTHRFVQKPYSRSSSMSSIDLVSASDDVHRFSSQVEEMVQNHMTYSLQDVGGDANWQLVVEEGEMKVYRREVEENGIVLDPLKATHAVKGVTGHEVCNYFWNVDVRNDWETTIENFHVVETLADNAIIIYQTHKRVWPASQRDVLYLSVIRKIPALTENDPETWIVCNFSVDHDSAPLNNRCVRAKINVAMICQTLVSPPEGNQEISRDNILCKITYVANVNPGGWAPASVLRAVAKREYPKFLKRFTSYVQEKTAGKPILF

[2] = biological target: T2, GPBP (FLAG-GPBP) (Homo sapiens, UniProt Q9Y5P4); assay: […] in vitro autophosphorylation of FLAG-GPBP (Figure 9G); type: biochemical
T2 construct: gene CERT1; FLAG-GPBP
T2 sequence (Q9Y5P4 1-624): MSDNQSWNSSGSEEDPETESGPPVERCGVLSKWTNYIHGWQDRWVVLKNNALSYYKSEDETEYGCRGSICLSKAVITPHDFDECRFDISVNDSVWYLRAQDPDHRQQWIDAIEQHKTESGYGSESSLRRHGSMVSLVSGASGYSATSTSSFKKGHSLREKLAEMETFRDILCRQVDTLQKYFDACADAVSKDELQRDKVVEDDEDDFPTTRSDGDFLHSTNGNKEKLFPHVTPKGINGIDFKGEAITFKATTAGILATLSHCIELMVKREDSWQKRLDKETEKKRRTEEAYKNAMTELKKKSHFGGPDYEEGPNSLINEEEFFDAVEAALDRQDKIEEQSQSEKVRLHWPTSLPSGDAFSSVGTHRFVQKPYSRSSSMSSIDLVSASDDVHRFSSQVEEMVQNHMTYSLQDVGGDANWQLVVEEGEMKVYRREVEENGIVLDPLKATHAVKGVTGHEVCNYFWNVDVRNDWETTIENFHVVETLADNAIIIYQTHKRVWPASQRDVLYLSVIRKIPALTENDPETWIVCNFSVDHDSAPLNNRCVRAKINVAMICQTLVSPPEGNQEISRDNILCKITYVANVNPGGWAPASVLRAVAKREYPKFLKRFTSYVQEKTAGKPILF

[3] = biological target: the molecule itself; assay: SEC; FPLC-SEC on Superdex 200 of FLAG-GPBP purified from Sf9 culture media; calibrators thyroglobulin, aldolase, human serum albumin
[4] = biological target: the molecule itself; assay: SEC; HPLC-SEC on TSKgel G4000SW of purified yeast recombinant FLAG-tagged polypeptides
[5] = biological target: the molecule itself; assay: SEC; GPBP affinity-purified from culture media of A427 and A549 cells (scFvN26 column, native elution with peptide PS132), FPLC-SEC on Superdex 200, fractions read by indirect ELISA with anti-GPBP mAb

COc1ccc(-c2ccc(-c3cccc(C)c3)c(C)c2)c(CCC(=O)O)c1 [T12, 3-[4″-methoxy-3,2′-dimethyl-(1,1′;4′,1″)terphenyl-2″-yl]propionic acid] was tested, and the “32P in vitro autophosphorylation of purified multimeric GPBP at 50 μM T12; FPLC-” value [1] was “T12 reduced autophosphorylation of recombinant multimer but did not affect the recombinant GPBP trimer autophosphorylation activity”.

In the case of COc1cccc2c1C(=O)c1c(O)c3c(c(O)c1C2=O)C[C@@](O)(C(=O)CO)C[C@@H]3O[C@H]1C[C@H](N)[C@H](O)[C@H](C)O1 [doxorubicin], the “32P in vitro autophosphorylation of FLAG-GPBP (Figure 9G)” value [2] is reported as “it was shown the existence of GPBP species sensitive to doxorubicin (Figure 9G)”.

B1: FLAG-tagged GPBP (Goodpasture antigen-binding protein), extracellular pool from Sf9 cells (natural protein, human, UniProt Q9Y5P4 1-624, looked up)
chain: MSDNQSWNSSGSEEDPETESGPPVERCGVLSKWTNYIHGWQDRWVVLKNNALSYYKSEDETEYGCRGSICLSKAVITPHDFDECRFDISVNDSVWYLRAQDPDHRQQWIDAIEQHKTESGYGSESSLRRHGSMVSLVSGASGYSATSTSSFKKGHSLREKLAEMETFRDILCRQVDTLQKYFDACADAVSKDELQRDKVVEDDEDDFPTTRSDGDFLHSTNGNKEKLFPHVTPKGINGIDFKGEAITFKATTAGILATLSHCIELMVKREDSWQKRLDKETEKKRRTEEAYKNAMTELKKKSHFGGPDYEEGPNSLINEEEFFDAVEAALDRQDKIEEQSQSEKVRLHWPTSLPSGDAFSSVGTHRFVQKPYSRSSSMSSIDLVSASDDVHRFSSQVEEMVQNHMTYSLQDVGGDANWQLVVEEGEMKVYRREVEENGIVLDPLKATHAVKGVTGHEVCNYFWNVDVRNDWETTIENFHVVETLADNAIIIYQTHKRVWPASQRDVLYLSVIRKIPALTENDPETWIVCNFSVDHDSAPLNNRCVRAKINVAMICQTLVSPPEGNQEISRDNILCKITYVANVNPGGWAPASVLRAVAKREYPKFLKRFTSYVQEKTAGKPILF
notes: Constructs may be described in the extended methods (Supplementary Materials); also called FLAG-GPBP; extracellular GPBP
B1: binds [3].

B2: yeast recombinant FLAG-tagged GPBP (natural protein, human, UniProt Q9Y5P4 1-624, looked up)
chain: MSDNQSWNSSGSEEDPETESGPPVERCGVLSKWTNYIHGWQDRWVVLKNNALSYYKSEDETEYGCRGSICLSKAVITPHDFDECRFDISVNDSVWYLRAQDPDHRQQWIDAIEQHKTESGYGSESSLRRHGSMVSLVSGASGYSATSTSSFKKGHSLREKLAEMETFRDILCRQVDTLQKYFDACADAVSKDELQRDKVVEDDEDDFPTTRSDGDFLHSTNGNKEKLFPHVTPKGINGIDFKGEAITFKATTAGILATLSHCIELMVKREDSWQKRLDKETEKKRRTEEAYKNAMTELKKKSHFGGPDYEEGPNSLINEEEFFDAVEAALDRQDKIEEQSQSEKVRLHWPTSLPSGDAFSSVGTHRFVQKPYSRSSSMSSIDLVSASDDVHRFSSQVEEMVQNHMTYSLQDVGGDANWQLVVEEGEMKVYRREVEENGIVLDPLKATHAVKGVTGHEVCNYFWNVDVRNDWETTIENFHVVETLADNAIIIYQTHKRVWPASQRDVLYLSVIRKIPALTENDPETWIVCNFSVDHDSAPLNNRCVRAKINVAMICQTLVSPPEGNQEISRDNILCKITYVANVNPGGWAPASVLRAVAKREYPKFLKRFTSYVQEKTAGKPILF
notes: also called FLAG-GPBP
B2: binds [4].

B3: native extracellular GPBP isolated from the culture media of human NSCLC cells (A427, A549) (natural protein, human (endogenous in A427 and A549), UniProt Q9Y5P4 1-624, looked up)
chain: MSDNQSWNSSGSEEDPETESGPPVERCGVLSKWTNYIHGWQDRWVVLKNNALSYYKSEDETEYGCRGSICLSKAVITPHDFDECRFDISVNDSVWYLRAQDPDHRQQWIDAIEQHKTESGYGSESSLRRHGSMVSLVSGASGYSATSTSSFKKGHSLREKLAEMETFRDILCRQVDTLQKYFDACADAVSKDELQRDKVVEDDEDDFPTTRSDGDFLHSTNGNKEKLFPHVTPKGINGIDFKGEAITFKATTAGILATLSHCIELMVKREDSWQKRLDKETEKKRRTEEAYKNAMTELKKKSHFGGPDYEEGPNSLINEEEFFDAVEAALDRQDKIEEQSQSEKVRLHWPTSLPSGDAFSSVGTHRFVQKPYSRSSSMSSIDLVSASDDVHRFSSQVEEMVQNHMTYSLQDVGGDANWQLVVEEGEMKVYRREVEENGIVLDPLKATHAVKGVTGHEVCNYFWNVDVRNDWETTIENFHVVETLADNAIIIYQTHKRVWPASQRDVLYLSVIRKIPALTENDPETWIVCNFSVDHDSAPLNNRCVRAKINVAMICQTLVSPPEGNQEISRDNILCKITYVANVNPGGWAPASVLRAVAKREYPKFLKRFTSYVQEKTAGKPILF
notes: also called native extracellular A427 GPBP; mesenchymal GPBP
B3: binds [5].

B4: yeast recombinant FLAG-tagged GPBP-Ala264 (natural protein, human, UniProt Q9Y5P4 1-624, looked up)
chain: MSDNQSWNSSGSEEDPETESGPPVERCGVLSKWTNYIHGWQDRWVVLKNNALSYYKSEDETEYGCRGSICLSKAVITPHDFDECRFDISVNDSVWYLRAQDPDHRQQWIDAIEQHKTESGYGSESSLRRHGSMVSLVSGASGYSATSTSSFKKGHSLREKLAEMETFRDILCRQVDTLQKYFDACADAVSKDELQRDKVVEDDEDDFPTTRSDGDFLHSTNGNKEKLFPHVTPKGINGIDFKGEAITFKATTAGILATLSHCIALMVKREDSWQKRLDKETEKKRRTEEAYKNAMTELKKKSHFGGPDYEEGPNSLINEEEFFDAVEAALDRQDKIEEQSQSEKVRLHWPTSLPSGDAFSSVGTHRFVQKPYSRSSSMSSIDLVSASDDVHRFSSQVEEMVQNHMTYSLQDVGGDANWQLVVEEGEMKVYRREVEENGIVLDPLKATHAVKGVTGHEVCNYFWNVDVRNDWETTIENFHVVETLADNAIIIYQTHKRVWPASQRDVLYLSVIRKIPALTENDPETWIVCNFSVDHDSAPLNNRCVRAKINVAMICQTLVSPPEGNQEISRDNILCKITYVANVNPGGWAPASVLRAVAKREYPKFLKRFTSYVQEKTAGKPILF
notes: Mainly trimeric by SEC, with traces of higher and lower MW materials; source: yeast, purified
B4 was tested, and the “stoichiometry N” value [4] was 3.
